± gives the uncertainty stated by the source.
B1: CD2-associated protein, residues 1 to 59; numbered along this chain, Q9Y5K6 (parent)
chain: MVDYIVEYDYDAVHDDELTIRVGEIIRNVKKLQEEGWLEGELNGRRGMFPDNFVKEIKR

Variants of: B1
Assay: abundance fitness (aPCA) (normalised: wild type 0, dead -1); higher = more abundant; growth selection in yeast, the domain comes from the species named
Conditions: Homo sapiens

With MVDYIVEYDYDAVHDDELTIRVGEIIRNVKKLQEEGWLEGELNGRRGMFPDDFVKEIKR [N52D] as the variant, how does the abundance fitness read?
Its abundance fitness is -0.236 ± 0.23.

Which abundance fitness does the source give for MVDYIVEYDYDAVHDDELTIRVGEIIRNVKKLQEEGWLEGELNGRRGMFPDVFVKEIKR [N52V] here?
Its abundance fitness is 0.061 ± 0.17.

With MVDYIVEYDYDAVHDDELTIRVGEIIRNVKKLQEEGWLEGELNGRRGMFPDHFVKEIKR [N52H] as the variant, how does the abundance fitness read?
Its abundance fitness is -0.284 ± 0.13.

For MVDYIVEYDYDAVHDDELTIRVGEIIRNVKKLQEEGWLEGELNGRRGMFPDGFVKEIKR [N52G], which abundance fitness is on record?
The abundance fitness was -0.128 ± 0.17.

Which abundance fitness does the source give for MVDYIVEYDYDAVHDDELTIRVGEIIRNVKKLQEEGWLEGELNGRRGPFPDNFVKEIKR [M48P] here?
Its abundance fitness is -0.524 ± 0.22.

Which abundance fitness does the source give for MVDYIVEYDYDAVHDDELTIRVGEIIRNVKKLQEEGWLEGELNGRRGIFPDNFVKEIKR [M48I] here?
The abundance fitness was 0.115 ± 0.17.

Which abundance fitness does the source give for MVDYIVEYDYDAVHDDELTIRVGEIIRNVKKLQEEGWLEGELNGRRGRFPDNFVKEIKR [M48R] here?
The abundance fitness was 0.071 ± 0.062.

With MVDYIVEYDYDAVHDDELTIRVGEIIRNVKKLQEEGWLEGELNGRRGKFPDNFVKEIKR [M48K] as the variant, how does the abundance fitness read?
The abundance fitness was 0.093 ± 0.097.

With MVDYIVEYDYDAVHDDELTIRVGEIIRNVKKLQEEGWLEGELNGRRGWFPDNFVKEIKR [M48W] as the variant, how does the abundance fitness read?
Its abundance fitness is -0.126 ± 0.11.

With MVDYIVEYDYDAVHDDELTIRVGEIIRNVKKLQEEGWLEGELNGRRGYFPDNFVKEIKR [M48Y] as the variant, how does the abundance fitness read?
Its abundance fitness is -0.063 ± 0.16.

With MVDYIVEYDYDAVHDDELTIRVGEIIRNVKKLQEEGWLEGELNGRRGQFPDNFVKEIKR [M48Q] as the variant, how does the abundance fitness read?
The abundance fitness was -0.015 ± 0.082.

For MVDYIVEYDYDAVHDDELTIRVGEIIRNVKKLQEEGWLEGELNGRRGGFPDNFVKEIKR [M48G], which abundance fitness is on record?
Its abundance fitness is -0.33 ± 0.11.

With MVDYIVEYDYDAVHDDELTIRVGEIIRNVKKLQEEGWLEGELNGRRGNFPDNFVKEIKR [M48N] as the variant, how does the abundance fitness read?
Its abundance fitness is 0.047 ± 0.17.

Which abundance fitness does the source give for MVDYIVEYDYDAVHDDELTIRVGEIIRNVKKLQEEGWLEGELNGRRGHFPDNFVKEIKR [M48H] here?
Its abundance fitness is -0.257 ± 0.11.

Which abundance fitness does the source give for MVDYIVEYDYDAVHDDELTIRVGEIIRNVKKLQEEGWLEGELNGRRGLFPDNFVKEIKR [M48L] here?
The abundance fitness was -0.065 ± 0.079.

For MVDYIVEYDYDAVHDDELTIRVGEIIRNVKKLQEEGWLEGELNGRRGFFPDNFVKEIKR [M48F], which abundance fitness is on record?
Its abundance fitness is -0.175 ± 0.13.

For MVDYIVEYDYDAVHDDELTIRVGEIIRNVKKLQEEGWLEGELNGRRGTFPDNFVKEIKR [M48T], which abundance fitness is on record?
The abundance fitness was 0.035 ± 0.094.

Which abundance fitness does the source give for MVDYIVEYDYDAVHDDELTIRVGEIIRNVKKLQEEGWLEGELNGRRGVFPDNFVKEIKR [M48V] here?
Its abundance fitness is -0.053 ± 0.069.

Which abundance fitness does the source give for MVDYIVEYDYDAVHDDELTIRVGEIIRNVKKLQEEGWLEGELNGRRGSFPDNFVKEIKR [M48S] here?
The abundance fitness was 0.048 ± 0.083.

For MVDYIVEYDYDAVHDDELTIRVGEIIRNVKKLQEEGWLEGELNGRRGMPPDNFVKEIKR [F49P], which abundance fitness is on record?
The abundance fitness was -0.877 ± 0.3.

For MVDYIVEYDYDAVHDDELTIRVGEIIRNVKKLQEEGWLEGELNGRRGMSPDNFVKEIKR [F49S], which abundance fitness is on record?
The abundance fitness was -0.695 ± 0.15.

With MVDYIVEYDYDAVHDDELTIRVGEIIRNVKKLQEEGWLEGELNGRRGMMPDNFVKEIKR [F49M] as the variant, how does the abundance fitness read?
Its abundance fitness is -0.38 ± 0.12.

With MVDYIVEYDYDAVHDDELTIRVGEIIRNVKKLQEEGWLEGELNGRRGMLPDNFVKEIKR [F49L] as the variant, how does the abundance fitness read?
Its abundance fitness is -0.251 ± 0.09.

Which abundance fitness does the source give for MVDYIVEYDYDAVHDDELTIRVGEIIRNVKKLQEEGWLEGELNGRRGMIPDNFVKEIKR [F49I] here?
Its abundance fitness is -0.195 ± 0.15.

For MVDYIVEYDYDAVHDDELTIRVGEIIRNVKKLQEEGWLEGELNGRRGMAPDNFVKEIKR [F49A], which abundance fitness is on record?
The abundance fitness was -0.539 ± 0.26.

For MVDYIVEYDYDAVHDDELTIRVGEIIRNVKKLQEEGWLEGELNGRRGMKPDNFVKEIKR [F49K], which abundance fitness is on record?
Its abundance fitness is -0.826 ± 0.43.

With MVDYIVEYDYDAVHDDELTIRVGEIIRNVKKLQEEGWLEGELNGRRGMVPDNFVKEIKR [F49V] as the variant, how does the abundance fitness read?
The abundance fitness was -0.056 ± 0.17.

Which abundance fitness does the source give for MVDYIVEYDYDAVHDDELTIRVGEIIRNVKKLQEEGWLEGELNGRRGMQPDNFVKEIKR [F49Q] here?
The abundance fitness was -0.857 ± 0.43.

For MVDYIVEYDYDAVHDDELTIRVGEIIRNVKKLQEEGWLEGELNGRRGMFPINFVKEIKR [D51I], which abundance fitness is on record?
The abundance fitness was 0.092 ± 0.11.

With MVDYIVEYDYDAVHDDELTIRVGEIIRNVKKLQEEGWLEGELNGRRGMFPPNFVKEIKR [D51P] as the variant, how does the abundance fitness read?
The abundance fitness was -0.092 ± 0.083.

For MVDYIVEYDYDAVHDDELTIRVGEIIRNVKKLQEEGWLEGELNGRRGMFPANFVKEIKR [D51A], which abundance fitness is on record?
The abundance fitness was 0.04 ± 0.059.

With MVDYIVEYDYDAVHDDELTIRVGEIIRNVKKLQEEGWLEGELNGRRGMFPGNFVKEIKR [D51G] as the variant, how does the abundance fitness read?
Its abundance fitness is -0.047 ± 0.076.

Which abundance fitness does the source give for MVDYIVEYDYDAVHDDELTIRVGEIIRNVKKLQEEGWLEGELNGRRGMFPYNFVKEIKR [D51Y] here?
Its abundance fitness is -0.125 ± 0.088.

With MVDYIVEYDYDAVHDDELTIRVGEIIRNVKKLQEEGWLEGELNGRRGMFPLNFVKEIKR [D51L] as the variant, how does the abundance fitness read?
The abundance fitness was -0.017 ± 0.067.

Which abundance fitness does the source give for MVDYIVEYDYDAVHDDELTIRVGEIIRNVKKLQEEGWLEGELNGRRGMFPWNFVKEIKR [D51W] here?
The abundance fitness was -0.425 ± 0.41.

Which abundance fitness does the source give for MVDYIVEYDYDAVHDDELTIRVGEIIRNVKKLQEEGWLEGELNGRRGMFPNNFVKEIKR [D51N] here?
Its abundance fitness is 0.191 ± 0.3.

Which abundance fitness does the source give for MVDYIVEYDYDAVHDDELTIRVGEIIRNVKKLQEEGWLEGELNGRRGMFPHNFVKEIKR [D51H] here?
The abundance fitness was -0.032 ± 0.099.

With MVDYIVEYDYDAVHDDELTIRVGEIIRNVKKLQEEGWLEGELNGRRGMFPRNFVKEIKR [D51R] as the variant, how does the abundance fitness read?
Its abundance fitness is -0.019 ± 0.064.

For MVDYIVEYDYDAVHDDELTIRVGEIIRNVKKLQEEGWLEGELNGRRGMFPVNFVKEIKR [D51V], which abundance fitness is on record?
Its abundance fitness is -0.066 ± 0.091.

Which abundance fitness does the source give for MVDYIVEYDYDAVHDDELTIRVGEIIRNVKKLQEEGWLEGELNGRRGMFPMNFVKEIKR [D51M] here?
Its abundance fitness is -0.136 ± 0.41.

With MVDYIVEYDYDAVHDDELTIRVGEIIRNVKKLQEEGWLEGELNGRRGMFPTNFVKEIKR [D51T] as the variant, how does the abundance fitness read?
Its abundance fitness is 0.018 ± 0.071.

For MVDYIVEYDYDAVHDDELTIRVGEIIRNVKKLQEEGWLEGELNGRRGMFPENFVKEIKR [D51E], which abundance fitness is on record?
Its abundance fitness is 0.032 ± 0.2.

With MVDYIVEYDYDAVHDDELTIRVGEIIRNVKKLQEEGWLEGELNGRRGMFPSNFVKEIKR [D51S] as the variant, how does the abundance fitness read?
The abundance fitness was -0.055 ± 0.057.

With MVDYIVEYDYDAVHDDELTIRVGEIIRNVKKLQEEGWLEGELNGRRGMFPCNFVKEIKR [D51C] as the variant, how does the abundance fitness read?
Its abundance fitness is -0.195 ± 0.45.

Which abundance fitness does the source give for MVDYIVEYDYDAVHDDELTIRVGEIIRNVKKLQEEGWLEGELNGRRGMFPDNFAKEIKR [V54A] here?
The abundance fitness was -0.258 ± 0.21.

— the Human Domainome abundance scans (Beltran et al. 2025)
